Data on 3 compounds can be found in article PMC6161111, “Design, Synthesis, In Vitro, and Initial In Vivo Evaluation of Heterobivalent Peptidic Ligands Targeting Both NPY(Y1)- and GRP-Receptors—An Improvement for Breast Cancer Imaging?” (Pharmaceuticals, 2018).

One may read the logD as the decadic logarithm of the distribution of all forms, ionised or not, between an organic phase and buffer at a given pH.

Read-outs that look alike come from different tables or passages of the source.

One series relates to T-47D cells. The series can be described thus: In vitro cell uptake (internalization) study in T-47D cells. Particulars: after 4 h, % of total added activity. The series is classed as cell-based, human. Here is the method:
Cell culture. All cell lines were grown in suitable culture medium at 37 °C in a humidified CO2 (5%) atmosphere. The human breast cancer cell lines T-47D, MDA-MB-231 and MCF-7 were grown in Dulbecco’s Modified Eagle Medium (DMEM), supplemented with 10% (v/v) fetal calf serum (FCS) and 1% (v/v) L-Glutamine. For a high expression of the NPY(Y1) receptor on T-47D cells, the medium for this cell line was further supplemented with 0.15% (w/v) β-estradiol. The BT-474 and PC-3 cell lines were grown in RPMI-1640 medium, also supplemented with 10% (v/v) fetal calf serum (FCS) and 1% (v/v) L-Glutamine.
Internalization studies. Cells (T-47D, MDA-MB-231, MCF-7, BT-474 and PC-3, 1.5 × 10^6 cells per well) were seeded into 6-well plates and incubated overnight at 37 °C in a humidified CO2 (5%) atmosphere. The next day, the medium was removed and the cells were washed twice with the respective medium without supplements (ice-cold, 1 mL) and incubated with 3.7–4.0 kBq (0.37–4.0 pmol) of the respective ^68Ga-radiolabeled ligand [^68Ga]22−[^68Ga]26, [^68Ga]27 or [^68Ga]28 (in 1.5 mL medium, containing 0.5% (w/v) BSA) for defined time-points of 1, 2, 3 or 4 h at 37 °C in a humidified CO2 (5%) atmosphere. A 1000-fold excess of the respective peptide (3 or 4) was used for blocking to determine the non-specific cell uptake. At each time point, the medium was removed and the cells were washed twice with the respective medium without supplements (ice-cold, 1 mL). Cells were treated twice with 1 mL glycine buffer (ice-cold, 50 mM glycine, 100 mM NaCl, pH 2.8) for 5 min at room temperature, followed by 2 mL NaOH solution (1 M) for 10 min at 37 °C. The supernatants were collected and the radioactivity measured in a gamma counter. The internalized and surface bound activity was expressed as percentage of measured to total added activity. Each data point was generated thrice in triplicates.

Series [1] in a line: Determination of radiotracer lipophilicity (logD, phosphate buffer/1-octanol). The series is classed as physicochemical. Particulars: phosphate buffer (0.05 M, pH 7.4) / 1-octanol, six independent experiments. Here is the method: Determination of radiotracer lipophilicity. The heterobivalent ligands (22–26) as well as the monomeric reference compounds (27 and 28) were radiolabeled with ^68Ga as described before and 2 µL of the product solution (~65 pmol of the respective radioligand) were added to a mixture of phosphate buffer (0.05 M, pH 7.4, 800 µL) and 1-octanol (800 µL) and incubated for 5 min at ambient temperature under vigorous shaking. Both phases were separated by centrifugation and 100 µL of each phase were measured for radioactivity in a gamma-counter. […] (cpm = counts per minute), cpmw = activity in the aqueous phase [cpm]. These experiments were performed six times independently.

Series [2] can be described thus: Stability of the 68Ga-labeled ligands in human serum. The series is classed as in vitro ADME. Particulars: after 90 min incubation at 37 °C, radio-HPLC. Here is the method:
Determination of the stability of the ligands in human serum. The heterobivalent ligands (22–26) as well as the monomeric reference compounds (27 and 28) were radiolabeled with ^68Ga as described before and 125 µL of the product solution were added to 500 µL of human serum and incubated at 37 °C. At defined time-points of 5, 15, 30, 60 and 90 min, aliquots of 75 µL of the mixture were added to 75 µL of ethanol and the precipitation of serum proteins was enhanced by ice-cooling for 2 min. After centrifugation, supernatant and precipitate were measured for radioactivity and the supernatant was analyzed by analytical radio-HPLC. These experiments were performed thrice.

For the next series, the system named is T-47D tumor. The series can be described thus: Small animal PET/CT imaging in T-47D tumor-bearing mice. It counts as in vivo. Particulars: PET imaging, i.v. 5.5-8.0 MBq, n = 4. Here is the method: In vivo experiments. All animal experiments were performed in compliance with the German animal protection laws and protocols of the local committee (Regierungspräsidium Karlsruhe, approval number: 35-9185.81/G-206/15). 20, six week old female immunodeficient Fox Chase SCID (CB17/Icr-Prkdc^scid/IcrIcoCrl) mice with an average weight of 20 g were subcutaneously implanted with 17β-estradiol pellets (0.36 mg/60 days). 4 days later, the tumors were induced by subcutaneous inoculation of 5 × 10^6 T-47D cells into the left flank of the […]. After induction, the tumors were allowed to grow for 8–10 weeks and reached a diameter of about 0.5 cm. […] After the end of the diagnostic scan, the animals were sacrificed, the organs were collected and measured in a gamma-counter.
The dynamic PET images were reconstructed using the Albira Suite Reconstructor (Bruker) with an iterative dynamic reconstruction with 12 iterations using an 2D-Maximum-Likelihood Expectation-Maximization (MLEM) algorithm and a cubic image voxel size of 0.5 mm after scatter and decay correction. […] The reconstructed PET data were manually fused with the CT images using PMOD 3.6.1.1. and analyzed. Volumes of interest (VOIs) were defined for the quantification of tracer accumulation in heart, liver, kidneys, tumor, and muscle. The results for each VOI were calculated as SUV (kBq/cm^3) averaged for each time frame.

In the next series the test system is T-47D tumor-bearing mice. The series can be described thus: Ex vivo biodistribution in T-47D tumor-bearing mice. Particulars: 130 min p.i. Here is the method:
(§1) In vivo experiments. All animal experiments were performed in compliance with the German animal protection laws and protocols of the local committee (Regierungspräsidium Karlsruhe, approval number: 35-9185.81/G-206/15). 20, six week old female immunodeficient Fox Chase SCID (CB17/Icr-Prkdc^scid/IcrIcoCrl) mice with an average weight of 20 g were subcutaneously implanted with 17β-estradiol pellets (0.36 mg/60 days). 4 days later, the tumors were induced by subcutaneous inoculation of 5 × 10^6 T-47D cells into the left flank of the […]. After induction, the tumors were allowed to grow for 8–10 weeks and reached a diameter of about 0.5 cm. For imaging, the animals were anaesthetized with isoflurane and injected with 5.5–8.0 MBq of the respective radioligand ([^68Ga]24, [^68Ga]24a or [^68Ga]24b) into the lateral tail vein. Dynamic PET images were acquired over 90 min and CT images were obtained within further 30 min. After the end of the diagnostic scan, the animals were sacrificed, the organs were collected and measured in a gamma-counter.

Experiment in series [3]: as above
To be noted: female, Fox Chase SCID (CB17/Icr-Prkdc^scid/IcrIcoCrl), mouse, in vivo, iv, total radioactivity, ex vivo biodistribution at 130 min p.i. Here is the method: as §1

As for `CCCC[C@H](NC(=O)[C@H](CCCNC(=N)N)NC(=O)[C@H](Cc1c[nH]c2ccccc12)NC(=O)[C@H](CCCCNC(=O)CON=Cc1ccc(C(=O)NCCCN(CCCNC(=O)c2ccc(C=NOCC(=O)NCCOCCOCCOCCOCCC(=O)N[C@@H](CCC(N)=O)C(=O)N[C@@H](Cc3c[nH]c4ccccc34)C(=O)N[C@@H](C)C(=O)N[C@H](C(=O)NCC(=O)N[C@@H](Cc3c[nH]cn3)C(=O)N[C@@H](CC(C)C)C(=O)N[C@@H](CCSC)C(N)=O)C(C)C)cc2)CC(=O)NCCOCCOCCOCCOCCC(=O)N[C@@H](CCCCNC(=O)CCC(C(=O)O)N2CCN(CC(=O)O)CCN(CC(=O)O)CC2)C(N)=O)cc1)NC(=O)[C@@H]1CCCN1C(=O)[C@H](CC(N)=O)NC(=O)[C@@H](N)[C@@H](C)CC)C(=O)N[C@@H](CCCNC(=N)N)C(=O)N[C@@H](Cc1ccc(O)cc1)C(N)=O` (some centres unmarked) [[^68Ga]22, metal not drawn], the specific cell uptake in the series on T-47D cells was determined as 47.8 ± 6.5%. Moreover, the logD in series [1] is -1.57 ± 0.111.
Consider `CCCC[C@H](NC(=O)[C@H](CCCNC(=N)N)NC(=O)[C@H](Cc1c[nH]c2ccccc12)NC(=O)[C@H](CCCCNC(=O)CON=Cc1ccc(C(=O)NCCOCCOCCOCCOCCC(=O)NCCCN(CCCNC(=O)CCOCCOCCOCCOCCNC(=O)c2ccc(C=NOCC(=O)NCCOCCOCCOCCOCCC(=O)N[C@@H](CCC(N)=O)C(=O)N[C@@H](Cc3c[nH]c4ccccc34)C(=O)N[C@@H](C)C(=O)N[C@H](C(=O)NCC(=O)N[C@@H](Cc3c[nH]cn3)C(=O)N[C@@H](CC(C)C)C(=O)N[C@@H](CCSC)C(N)=O)C(C)C)cc2)CC(=O)NCCOCCOCCOCCOCCC(=O)N[C@@H](CCCCNC(=O)CCC(C(=O)O)N2CCN(CC(=O)O)CCN(CC(=O)O)CC2)C(N)=O)cc1)NC(=O)[C@@H]1CCCN1C(=O)[C@H](CC(N)=O)NC(=O)[C@@H](N)[C@@H](C)CC)C(=O)N[C@@H](CCCNC(=N)N)C(=O)N[C@@H](Cc1ccc(O)cc1)C(N)=O` (some centres unmarked) [[^68Ga]24, metal not drawn], for which, in series [2], the “degradation in human serum” value is listed as “no observable fragmentation”. The same compound came in with a specific cell uptake with T-47D cells of 50.1 ± 2.4%. For the same compound, in series [1], the logD was -1.67 ± 0.086. Moreover, the “tumor activity concentration at 85 min” value in the series on T-47D tumor is 122.03 ± 16.27 kBq/cm^3. The same compound had an adrenal glands uptake in the series on T-47D tumor-bearing mice (adrenal glands) of 3.57 ± 2.18 ID/g in %. In the series on T-47D tumor-bearing mice (blood), this compound had a blood uptake of 1.13 ± 0.77 ID/g in %. This compound registered a bone uptake in the series on T-47D tumor-bearing mice (bone) of 0.26 ± 0.14 ID/g in %. Moreover, the brain uptake in the series on T-47D tumor-bearing mice (brain) stood at 0.11 ± 0.14 ID/g in %. The compound further gave a heart uptake in the series with T-47D tumor-bearing mice (heart) of 0.52 ± 0.38 ID/g in %. This compound displayed a kidneys uptake in the series on T-47D tumor-bearing mice (kidneys) of 34.79 ± 11.03 ID/g in %. Moreover, the large intestines uptake in the series with T-47D tumor-bearing mice (large intestines) was determined as 1.80 ± 0.64 ID/g in %. This compound had a liver uptake in the series with T-47D tumor-bearing mice (liver) of 10.02 ± 1.54 ID/g in %. Also, the lung uptake in the series on T-47D tumor-bearing mice (lung) stood at 0.62 ± 0.17 ID/g in %. This compound registered a muscle uptake in the series with T-47D tumor-bearing mice (muscle) of 0.26 ± 0.18 ID/g in %. In the series with T-47D tumor-bearing mice (pancreas), this compound returned a pancreas uptake of 10.54 ± 3.13 ID/g in %. Besides, the small intestines uptake in the series with T-47D tumor-bearing mice (small intestines) was 1.49 ± 0.36 ID/g in %. The spleen uptake in the series with T-47D tumor-bearing mice (spleen) amounted to 1.32 ± 0.33 ID/g in %. In the series with T-47D tumor-bearing mice (stomach), this compound registered a stomach uptake of 1.47 ± 0.44 ID/g in %. For the same compound, in the series with T-47D tumor-bearing mice (tail), the tail uptake came to 1.30 ± 1.21 ID/g in %. The compound further yielded a tumor uptake with T-47D tumor-bearing mice (tumor) of 3.07 ± 0.33 ID/g in %. For the same compound, the tissue to tissue ratio at 130 min came out at 2.72 ± 0.43 in series [3] (read-out: tumor-to-blood ratio (T / B)) and 11.8 ± 1.83 in series [3] (read-out: tumor-to-muscle ratio (T / M)).
With `CCCC[C@H](NC(=O)[C@H](CCCNC(=N)N)NC(=O)[C@H](Cc1c[nH]c2ccccc12)NC(=O)[C@H](CCCCNC(=O)CON=Cc1ccc(C(=O)NCCOCCOCC(=O)NCCCN(CCCNC(=O)COCCOCCNC(=O)c2ccc(C=NOCC(=O)NCCOCCOCCOCCOCCC(=O)N[C@@H](CCC(N)=O)C(=O)N[C@@H](Cc3c[nH]c4ccccc34)C(=O)N[C@@H](C)C(=O)N[C@H](C(=O)NCC(=O)N[C@@H](Cc3c[nH]cn3)C(=O)N[C@@H](CC(C)C)C(=O)N[C@@H](CCSC)C(N)=O)C(C)C)cc2)CC(=O)NCCOCCOCCOCCOCCC(=O)N[C@@H](CCCCNC(=O)CCC(C(=O)O)N2CCN(CC(=O)O)CCN(CC(=O)O)CC2)C(N)=O)cc1)NC(=O)[C@@H]1CCCN1C(=O)[C@H](CC(N)=O)NC(=O)[C@@H](N)[C@@H](C)CC)C(=O)N[C@@H](CCCNC(=N)N)C(=O)N[C@@H](Cc1ccc(O)cc1)C(N)=O` (some centres unmarked) [[^68Ga]23, metal not drawn], the specific cell uptake in the series with T-47D cells is listed as 45.8 ± 2.9%. Further, the logD in series [1] is -1.53 ± 0.109.
